For 7 molecules, binding result, Kd and binding signal results are on record in doi:10.1101/2022.08.30.505862.

In data set [1] the target is T1, RBM39 RRM2 (UniProt Q14498 247-332).
T1 sequence: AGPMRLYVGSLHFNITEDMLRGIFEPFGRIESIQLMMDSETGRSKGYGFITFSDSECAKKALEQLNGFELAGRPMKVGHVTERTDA
Kind of data set: NMR CSP.

For a further data set, the target named is T2, GB1-RBM39-RRM12 (UniProt Q14498 143-332).
T2 sequence: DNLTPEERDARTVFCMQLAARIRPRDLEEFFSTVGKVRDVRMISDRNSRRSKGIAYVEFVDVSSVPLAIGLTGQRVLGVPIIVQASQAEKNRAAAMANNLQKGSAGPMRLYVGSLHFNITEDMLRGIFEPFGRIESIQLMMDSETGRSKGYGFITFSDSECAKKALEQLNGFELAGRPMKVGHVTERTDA
The data set is described as follows: NMR CSP.

Data set [2] concerns the target T1, RBM39 RRM2. Kind of data set: ITC. In general terms: Isothermal titration calorimetry measures the heat released or taken up as one component is titrated into another.
The target in another data set is T3, RBM39 RRM2 F259A (UniProt Q14498 247-332, F259A).
T3 sequence: T1 sequence with F13A
The data set is described as follows: ITC.

The target of data set [3] is T1, RBM39 RRM2. The data set is described as follows: NMR CSP. The source holds these as a separate data set.
A further data set deals with T4, RBM39 RRM12 (UniProt Q14498 143-332).
T4 sequence: T2 sequence
The data set is described as follows: NMR CSP.

Another data set concerns the target T5, RBM39 RRM1 (UniProt Q14498 142-237).
T5 sequence: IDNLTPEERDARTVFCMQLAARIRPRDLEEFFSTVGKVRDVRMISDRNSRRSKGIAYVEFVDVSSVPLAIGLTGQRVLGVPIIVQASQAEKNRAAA
The data set is described as follows: NMR solution structure.

Numbering of substitutions follows the chain as printed. Read-outs that look alike come from different tables or passages of the source.

Regarding ACCUUUG (ssRNA) [BS2 (ACCUUUG)], in the data set with RBM39 RRM2 [1], the binding result was “binds”.

Turning to GGACUGUCCACAAGACAGUCG (structured_RNA) [RBMY stem-loop aptamer], in the data set with GB1-RBM39-RRM12, the binding result was “binds”.

Broadly, the Kd is the constant that tells how readily two partners part at equilibrium. Lower therefore signals a tighter complex. Take AGCUUUG (ssRNA) [AGCUUUG ssRNA]: binding with RBM39 RRM2 [2] was characterised by a dissociation constant (Kd) of 9 ± 2 µM. Further, in the data set with RBM39 RRM2 F259A, the binding signal is 4 fold lower affinity than WT.

As for CCUCCCA (ssRNA) [mutBS1 (CCUCCCA)], the binding result with RBM39 RRM2 [3] was “no binding”.

Regarding GGGGACUGCGUUCGCGCUUUCCCC (structured_RNA) [U1 snRNA SL4], the binding result in the data set with GB1-RBM39-RRM12 is “binds”.

As for CUCUUUG (ssRNA) [BS1 (CUCUUUG)], in the data set with RBM39 RRM2 [1], the binding result was “binds”.

For the molecule GGGAUUUCCCCAAAUGUGGGAAACUCCC (structured_RNA) [U1 snRNA SL3], the binding result with RBM39 RRM12 and with RBM39 RRM1 was “binds” throughout.
